# B1: Luc90-1B5: mutant luciferase, SEQ ID NO:24 (protein)
# chain: MADKNILYGPEPFYPLEDGTAGEQMFDALSRYADIPGCIALTNAHTKENVLYEEFLKLSCRLAESFKKYGLKQNDTIAVCSENGLQFFLPVIASLYLGIIVAPVNDKYIERELIHSLGIVKPRIVFCSKNTFQKVLNVKSKLKSIETIIILDLNEDLGGYQCLNNFISQNSDSNLDVKKFKPYSFNRDDQVALIMFSSGTTGLPKGVMLTHKNIVARFSLAKDPTFGNAINPTTAILTVIPFHHGFGMMTTLGYFTCGFRVVLMHTFEEKLFLQSLQDYKVESTLLVPTLMAFLAKSALVEKYDLSHLKEIASGGAPLSKEIGEMVKKRFKLNFVRQGYGLTETTSAVLITPKGDAKPGSTGKIVPFHAVKVVDPTTGKILGPNEPGELYFKGPMIMKGYYNNEEATKAIIDNDGWLRSGDIAYYDNDGHFYIVDRLKSLIKYKGYQVAPAEIEGILLQHPYIVDAGVTGIPDEAAGELPAAGVVVQTGKYLNEQIVQDYVASQVSTAKWLRGGVKFLDEIPKGSTGKIDRKVLRQMFEKHTNG
# modifications: Mutant luciferase
# Tests used:
# Type in all cases: biochemical
# [1] = Robotic quantitative screen of E. coli lysates: luminescence activity (Li), expression/specific activity; settings: relative value; Control is Luc85-4F12 at 65° C. (=1)
# Description: A plate containing cells is retrieved from the carousel and placed on the shaker for 3-5 minutes to fully mix the cells. The cells tend to settle from solution upon standing.
# To measure Optical Density (O.D.), the plate is moved from the shaker to the locator near the luminometer; the lid is removed and the plate placed into the luminometer. The O.D. is measured using a 620 nm filter.
# To prepare a cell lysate, the plate of cells is first retrieved from the refrigerator and mixed on the shaker to resuspend the cells. A new plate from the carousel without a lid is placed in the reagent dispenser and 20 μl of Buffer A is added to each well. This is placed in the pipetting station.
# The plate is then moved to the reagent dispenser to add 175 μl of Buffer B, and then mixed on the shaker for about 15 minutes or more. The combination of the freeze/thaw and Buffer B will cause the cells to lyse.
# (§1) One daughter plate is placed in the luminometer and the 1X assay method is used. After the assay, the plate is placed in the ambient incubator, and the second daughter plate is placed in the luminometer. For the second plate, the 0.02X assay method is used. This plate is discarded, and the first plate is returned from the incubator to the luminometer. The repeat assay method is used (i.e., no reagent is injected). Afterwards, the plate is again returned to the ambient incubator.
# 1X Assay reagent: 5 μM Luciferin; 175 μM ATP; 20 mM Tricine, pH 8.0; 0.1 mM EDTA
# (§2) The following criteria were used for screening purposes. The temperature chosen for the enzyme stability parameter was such that the parent enzyme would decay 100 to 1000 fold over 10 hours (see Table 1). Criteria 1 is achieved manually; data for criteria 2-6 is generated by robotic analysis. For all criteria, the maximum value as described is selected. • 1. In vivo screen. The brightest clones are selected at a given temperature. • 2. Expression/specific activity. The value for normalized luminescence is calculated as the ratio of luminescence to optical density. The value is reported as the ratio with the reference value. • 3. Enzyme stability. Measurements of normalized luminescence of the incubated samples (3 taken over about 15 hours) are fitted to In(L)=In(L0)−(t/τ), where L is normalized luminescence and t is time. τ is a measure of the enzyme stability. The value is reported as the ratio with the reference value, and the correlation coefficients are calculated. • 4. Substrate binding. Measurements of normalized luminescence with 1X and 0.02X are taken at the initial reading set, and 1X and 0.06X are taken at the 5 hour set. The ratio of the 0.02X:1X and 0.06X:1X gives the relative luminescence at 0.02X and 0.06X concentrations. These values, along with the relative luminescence at 1X (i.e., 1), are fitted to a Lineweaver-Burk plot to yield the Km:app,total for the substrates ATP, luciferin, and CoA. The values are reported as the inverse ratio with the reference value, and the correlation coefficients are calculated. • 5. Signal stability. The luminescence of the initial IX luminescent reactions are re-measured 3 additional times over about 15 hours. These values are fitted to In(L)=In(L0)−(t/τ) and the integral over t (15 hours) is calculated. Signal stability is then calculated as S=(1−int(L)/L0t)^2. The values are reported as the inverse ratio with the reference value, and the correlation coefficients are calculated. • 6. Composite fitness. The values of criteria 2 through 5 are combined into a single composite value of fitness (or commercial utility). This value is based on a judgment of the relative importance of the other criteria. This judgment is given below:
# Normalize luminescence data: For each measurement of luminescence in the eight daughter plates, the normalized luminescence is calculated by dividing the relative light units by the optical density of the original plate. […]
# [2] = Robotic quantitative screen of E. coli lysates: signal stability (S), sustained enzymatic turnover; settings: inverse ratio with reference; Control is Luc85-4F12 at 65° C. (=1)
# Description: as §1
# The plate in the ambient incubator is returned to the luminometer and the repeat assay method is again used. The plate is returned afterwards to the ambient incubator.
# The plate in the ambient incubator is returned to the luminometer and the repeat assay method is again used. The plate is discarded afterwards.
# as §2
# Calculate signal stability (S): For each sample, use linear regression to fit In(L)=In(L0)[…] using the four luminescence measurements of the initial microplate with 1X substrate concentrations (Plates 1, 3, 4, and 7). Also calculate the regression coefficient. From the calculated values of T and L0, calculate the integral of luminescence by int(L)=τL0(1−exp(−tf/τ)), where tf is the average time of the last measurement (e.g., 15 hours). The signal stability is calculated as S=(1−int(L)/Litf)^2, where Li is the initial measurement of normalized luminescence with 1× substrate concentration (Plate 1).
# [Note: To correct for evaporation, an equation S=(1+K−int(L)/Litf)^2, may be used where 1/K=2(relative change of liquid volume at tf).]
# Calculate the reference-normalized values: For the criteria parameter of each sample, a reference-normalized value is determined by calculating the ratio or inverse ratio with the respective reference value. […]
# [3] = Michaelis-Menten constant for luciferin of purified mutants; settings: purified enzyme
# Source text: Substrate binding was screened by measuring an apparent composite Km (see Example 2) for luciferin and ATP. […] The Km for luciferin rose while the Km for ATP declined (Table 3). The reason for this change is unknown, although it can be speculated that more efficient release of oxyluciferin or luciferin inhibitors could lead to more rapid enzyme turnover.
# Protein purification: Four mutants that are described herein (Luc[T249M], Luc49-7C6, Luc78-0B10, and Luc90-1B5) were purified using a previously published procedure (Hastings et al., 1996).
molecule,measurement,setting,value
B1,Luminescence (Li),[1],1.4743
same,Signal stability (S),[2],1.0011
same,Km,[3],2.2 µM
